From article PMC11931166, “Heterologous expression and characterization of xylose-tolerant GH 43 family β-xylosidase/α-L-arabinofuranosidase from Limosilactobacillus fermentum and its application in xylan degradation” (Frontiers in Bioengineering and Biotechnology, 2025)

T1: LfXyl43 (GH 43 β-xylosidase/α-L-arabinofuranosidase) (Limosilactobacillus fermentum, UniProt A0ABF7R1E2)
T1 construct: gene LAF_0405; recombinant rLfXyl43, 551 residues, C-terminal 6× histidine tag
T1 sequence (A0ABF7R1E2 1-551): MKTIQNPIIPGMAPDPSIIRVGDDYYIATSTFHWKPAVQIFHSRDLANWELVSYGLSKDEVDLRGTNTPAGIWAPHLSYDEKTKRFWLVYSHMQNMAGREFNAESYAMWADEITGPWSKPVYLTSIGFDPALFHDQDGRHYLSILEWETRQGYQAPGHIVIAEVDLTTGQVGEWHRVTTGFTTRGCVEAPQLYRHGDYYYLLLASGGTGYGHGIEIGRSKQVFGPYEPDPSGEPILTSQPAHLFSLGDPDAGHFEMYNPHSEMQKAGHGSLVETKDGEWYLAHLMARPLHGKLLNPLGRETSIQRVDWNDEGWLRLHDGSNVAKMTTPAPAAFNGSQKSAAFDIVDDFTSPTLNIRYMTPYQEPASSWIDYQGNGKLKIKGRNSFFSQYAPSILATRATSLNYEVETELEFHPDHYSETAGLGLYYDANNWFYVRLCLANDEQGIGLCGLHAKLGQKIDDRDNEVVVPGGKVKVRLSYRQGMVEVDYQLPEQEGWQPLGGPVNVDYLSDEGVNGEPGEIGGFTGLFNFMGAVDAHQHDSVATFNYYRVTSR

B1: LfXyl43 (GH 43 β-xylosidase/α-L-arabinofuranosidase) (Limosilactobacillus fermentum IFO 3956) (protein)
chain: T1 sequence (A0ABF7R1E2 1-551)
notes: recombinant rLfXyl43, 551 residues, C-terminal 6× histidine tag

Key:
[1] = target: T1, LfXyl43 (GH 43 β-xylosidase/α-L-arabinofuranosidase); assay: specific activity of purified enzyme at […] substrate; type: biochemical
[2] = substrate: OC1OC[C@@H](O[C@@H]2OC[C@@H](O)[C@H](O)[C@H]2O)[C@H](O)[C@H]1O; assay: Michaelis-Menten kinetics, DNSA reducing sugar assay (Km); type: biochemical, Limosilactobacillus fermentum; settings: catalytic pocket, subsites −[…] and +[…] (predicted)
[3] = substrate: OC1OC[C@@H](O[C@@H]2OC[C@@H](O[C@@H]3OC[C@@H](O)[C@H](O)[C@H]3O)[C@H](O)[C@H]2O)[C@H](O)[C@H]1O; assay: as above; type: biochemical, Limosilactobacillus fermentum
[4] = substrate: OC1OC[C@@H](O[C@@H]2OC[C@@H](O[C@@H]3OC[C@@H](O[C@@H]4OC[C@@H](O)[C@H](O)[C@H]4O)[C@H](O)[C@H]3O)[C@H](O)[C@H]2O)[C@H](O)[C@H]1O; assay: as above; type: biochemical, Limosilactobacillus fermentum; settings: catalytic pocket, Asp15 and Glu188 at the −[…] subsite (predicted)
purified protein [5] = substrate: O=[N+]([O-])c1ccc(O[C@@H]2OC[C@@H](O)[C@H](O)[C@H]2O)cc1; assay: purified protein; type: biochemical, Limosilactobacillus fermentum; settings: catalytic pocket, Asp15, Asp129 and Glu188 (predicted)
purified protein [6] = substrate: O=[N+]([O-])c1ccc(O[C@@H]2O[C@@H](CO)[C@H](O)[C@H]2O)cc1; assay: purified protein; type: biochemical, Limosilactobacillus fermentum

Specific activity, U/mg [1] | Molecule | Km [2] | Vmax [2] | kcat [2] | kcat/Km [2] | Km [3] | Vmax [3] | kcat [3] | kcat/Km [3] | Km [4] | Vmax [4] | kcat [4] | kcat/Km [4] | Km (purified protein [5]) | Vmax (purified protein [5]) | kcat (purified protein [5]) | Km (purified protein [6]) | Vmax (purified protein [6]) | kcat (purified protein [6]) | kcat/Km (purified protein [6])
3.8 ± 0.1 U/mg | O=[N+]([O-])c1ccccc1O[C@@H]1OC[C@@H](O)[C@H](O)[C@H]1O [oNPX, o-nitrophenyl-β-D-xylopyranoside] |  |  |  |  |  |  |  |  |  |  |  |  |  |  |  |  |  |  | 
 | B1 | 134.7 mM | 241 µmol/min/mg | 1740 s⁻¹ | 12900 M⁻¹ s⁻¹ | 120.2 mM | 441 µmol/min/mg | 3170 s⁻¹ | 26400 M⁻¹ s⁻¹ | 84.2 mM | 488 µmol/min/mg | 3530 s⁻¹ | 41900 M⁻¹ s⁻¹ | 2.0 mM | 19.7 µmol/min/mg | 142 s⁻¹ | 1.5 mM | 0.4 µmol/min/mg | 2.8 s⁻¹ | 1900 M⁻¹ s⁻¹
